Experimental data: patent US20100048478A1 (University of Pennsylvania, published 2010)
One block for each molecule: values may come before it.

Columns and labels:
[1] = target: TRAIL receptor DR5 on SK-Hep1 human hepatoma cells (human) (UniProt O14763); assay: cell-based or functional assay
[2] = target: T1, murine TWEAK, full length, on transiently transfected CHO cells (murine, UniProt O54907 1-249); assay: flow cytometry on CHO cells transiently transfected with murine TWEAK, 4 C, detected with anti-mouse TRAIL Ab
T1 construct: whole, on cells; also called cell surface TWEAK
T1 sequence (looked up): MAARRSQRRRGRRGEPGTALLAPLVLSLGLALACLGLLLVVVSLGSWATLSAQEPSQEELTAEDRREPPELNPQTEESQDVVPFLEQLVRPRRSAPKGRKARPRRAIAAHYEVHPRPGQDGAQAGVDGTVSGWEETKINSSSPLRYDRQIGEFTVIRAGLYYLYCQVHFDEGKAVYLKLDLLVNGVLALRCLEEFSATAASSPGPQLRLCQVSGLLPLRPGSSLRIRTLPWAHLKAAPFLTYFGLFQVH
Experimental: B) CHO cells were transiently transfected with a murine TWEAK cDNA expression construct, and after 48 h, were incubated at 4° C. with purified Fn14-TRAIL or rTRAIL in sodium azide-containing buffer. The presence of membrane-bound TWEAK on transfectants, and the binding of Fn14-TRAIL to them, was verified by flow cytometry, using anti-mouse TWEAK Ab (B.1) and anti-mouse TRAIL Ab (B.2-5) as detecting Ab, respectively. (B.1) TWEAK is expressed on transfected CHO cells, as detected using anti-TWEAK Ab (solid black line) versus isotype control (filled histogram); (B.2) TRAIL is not detectable on CHO cells, when analyzed using anti-TRAIL Ab (solid black line) versus isotype control (filled histogram). (B.3 and B.4) TRAIL epitopes are enhanced when Fn14-TRAIL is added to TWEAK-expressing, as opposed to TWEAK-negative, CHO cells. Anti-TRAIL Ab and isotype control are represented by solid black line and filled histogram, respectively. […] Isotype control is shown as filled histogram.
To validate the identity of expressed Fn14-TRAIL, its ability to bind to Fn14's ligand, TWEAK, was assessed. To this end, CHO cells were transiently transfected with a murine TWEAK cDNA expression construct (in the pcDNA3 vector), and after 48 h, transfectants were incubated at 4° C. with purified Fn14-TRAIL or soluble TRAIL.

Chain of TRAIL receptor DR5 on SK-Hep1 human hepatoma cells (human) (O14763 56-440): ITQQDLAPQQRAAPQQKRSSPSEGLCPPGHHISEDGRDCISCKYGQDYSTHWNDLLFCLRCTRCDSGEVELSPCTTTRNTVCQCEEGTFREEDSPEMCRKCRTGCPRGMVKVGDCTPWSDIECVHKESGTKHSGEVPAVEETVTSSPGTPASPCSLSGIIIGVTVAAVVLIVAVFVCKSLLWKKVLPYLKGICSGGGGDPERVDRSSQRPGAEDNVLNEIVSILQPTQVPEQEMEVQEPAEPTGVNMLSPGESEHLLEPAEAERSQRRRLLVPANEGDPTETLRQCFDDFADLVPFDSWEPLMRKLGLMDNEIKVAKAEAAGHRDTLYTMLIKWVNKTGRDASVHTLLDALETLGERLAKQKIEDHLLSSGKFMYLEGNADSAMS

Molecule: purified untagged human Fn14-TRAIL protein
killing effect on SK-Hep1 cells (24 h, trypan blue live/dead count) [1]: 0.04 nM

binding result [2]: no binding
B1: soluble TRAIL (aa 118-291 of murine TRAIL) (ligand, UniProt P50592 118-291, looked up)
chain: PRGGRPQKVAAHITGITRRSNSALIPISKDGKTLGQKIESWESSRKGHSFLNHVLFRNGELVIEQEGLYYIYSQTYFRFQEAEDASKMVSKDKVRTKQLVQYIYKYTSYPDPIVLMKSARNSCWSRDAEYGLYSIYQGGLFELKKNDRIFVSVTNEHLMDLDQEASFFGAFLIN
notes: range 118-291
